This note sets out measurements from patent US10830762.

The experiment addresses human CRBN (amino acids 40-442) in complex with full length human DDB1 (human) (UniProt Q96SW2). As to the kind of experiment: SPR (Biacore T200): GST-GSPT1 domains 2 and 3 captured by anti-GST antibody, CRBN-DDB1 as analyte, 10 uM Compound C; data not shown.

Chain of human CRBN (amino acids 40-442) in complex with full length human DDB1 (human) (Q96SW2 40-442, chain 1 of 2): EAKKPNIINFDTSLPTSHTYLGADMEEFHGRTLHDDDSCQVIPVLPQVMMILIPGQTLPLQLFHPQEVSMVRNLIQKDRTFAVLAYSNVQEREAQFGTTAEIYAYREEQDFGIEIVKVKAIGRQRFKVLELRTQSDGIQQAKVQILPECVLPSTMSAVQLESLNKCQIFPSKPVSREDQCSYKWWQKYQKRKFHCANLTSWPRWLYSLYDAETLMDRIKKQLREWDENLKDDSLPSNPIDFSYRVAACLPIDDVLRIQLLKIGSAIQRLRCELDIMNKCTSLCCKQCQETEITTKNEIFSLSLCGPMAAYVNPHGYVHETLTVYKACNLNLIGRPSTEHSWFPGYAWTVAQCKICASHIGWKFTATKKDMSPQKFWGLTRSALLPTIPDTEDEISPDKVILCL
Chain of human CRBN (amino acids 40-442) in complex with full length human DDB1 (human) (Q16531 2-1140, chain 2 of 2, further chain): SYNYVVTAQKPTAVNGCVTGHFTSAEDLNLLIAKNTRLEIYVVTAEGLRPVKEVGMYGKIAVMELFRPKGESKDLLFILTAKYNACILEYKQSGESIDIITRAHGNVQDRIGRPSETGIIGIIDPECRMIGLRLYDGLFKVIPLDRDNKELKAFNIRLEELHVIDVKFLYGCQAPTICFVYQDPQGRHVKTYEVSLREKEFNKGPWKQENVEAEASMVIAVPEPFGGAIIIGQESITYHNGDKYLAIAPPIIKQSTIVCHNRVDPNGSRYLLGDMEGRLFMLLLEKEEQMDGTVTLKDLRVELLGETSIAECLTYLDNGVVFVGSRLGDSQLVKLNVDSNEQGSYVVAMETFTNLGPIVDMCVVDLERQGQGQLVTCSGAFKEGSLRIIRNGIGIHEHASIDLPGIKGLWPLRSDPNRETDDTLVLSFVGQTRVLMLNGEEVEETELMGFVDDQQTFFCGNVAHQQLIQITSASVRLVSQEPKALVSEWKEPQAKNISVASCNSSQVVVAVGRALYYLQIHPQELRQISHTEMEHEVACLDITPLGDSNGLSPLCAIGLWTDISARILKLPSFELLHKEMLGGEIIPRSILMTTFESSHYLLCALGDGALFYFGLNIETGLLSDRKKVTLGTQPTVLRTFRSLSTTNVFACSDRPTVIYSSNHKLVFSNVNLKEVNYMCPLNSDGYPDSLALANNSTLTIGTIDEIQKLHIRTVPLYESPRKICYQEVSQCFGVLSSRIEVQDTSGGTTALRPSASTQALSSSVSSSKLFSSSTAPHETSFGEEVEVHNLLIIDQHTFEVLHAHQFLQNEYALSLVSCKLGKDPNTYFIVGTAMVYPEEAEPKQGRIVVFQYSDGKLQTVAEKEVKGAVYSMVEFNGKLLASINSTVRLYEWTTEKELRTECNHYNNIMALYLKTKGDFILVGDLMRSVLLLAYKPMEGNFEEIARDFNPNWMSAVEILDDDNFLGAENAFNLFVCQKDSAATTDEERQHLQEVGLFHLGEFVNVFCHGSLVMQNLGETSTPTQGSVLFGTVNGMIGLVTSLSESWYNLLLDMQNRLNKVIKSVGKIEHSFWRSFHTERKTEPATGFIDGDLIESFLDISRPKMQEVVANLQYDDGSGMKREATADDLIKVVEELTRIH

“GST-GSPT1-domain 2 and 3 (from UniProt P15170 437-633)” displayed a Kd of 400 nM.
